From patent publication US20170258870

Molecular target: myc-tagged LIMP-2

B1: wild-type β-glucocerebrosidase (GC), human, overexpressed in cells (protein)
chain: ARPCIPKSFGYSSVVCVCNATYCDSFDPPTFPALGTFSRYESTRSGRRMELSMGPIQANHTGTGLLLTLQPEQKFQKVKGFGGAMTDAAALNILALSPPAQNLLLKSYFSEEGIGYNIIRVPMASCDFSIRTYTYADTPDDFQLHNFSLPEEDTKLKIPLIHRALQLAQRPVSLLASPWTSPTWLKTNGAVNGKGSLKGQPGDIYHQTWARYFVKFLDAYAEHKLQFWAVTAENEPSAGLLSGYPFQCLGFTPEHQRDFIARDLGPTLANSTHHNVRLLMLDDQRLLLPHWAKVVLTDPEAAKYVHGIAVHWYLDFLAPAKATLGETHRLFPNTMLFASEACVGSKFWEQSVRLGSWDRGMQYSHSIITNLLYHVVGWTDWNLALNPEGGPNWVRNFVDSPIIVDITKDTFYKQPMFYHLGHFSKFIPEGSQRVGLVASQKNDLDAVALMHPDGSAVVVVLNRSSKDVPLTIKDPAVGFLETISPGYSIHTYLWRRQ
- GC enzymatic activity on co-expression with LIMP-2: Upon co-expression of wild-type GC and LIMP-2 we observed a significant increase in GC activity
